Assay: yeast display, Sf9 membrane polyspecificity reagent, FACS + sequencing; frameworks hold sequencing errors
Summary of the method: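 Galactose induction of a Saccharomyces cerevisiae BJ5465 synthetic nanobody display library ran 36–48 hours. The cells were then stained for 1 hour at 4 °C with 10% biotinylated, detergent-solubilized Sf9 membrane reagent, pulled down on streptavidin microbeads and FACS-sorted into low and high (top ~1%) gates on expression and reagent-binding fluorescence. Labels for polyreactivity follow the gate of origin.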

| Sequence | polyreactivity (PSR sort gate) |
| --- | --- |
| QVQLVESGGGLVQAGGSLRLSCAASGYIFDGNAMGWYRKAPGKERELVAPITWTGGSTYYADSVKGRFTISRDNAKNTVYLQMNSLKPEDTAVYYCAKPYDPGPYHSSYRATDDYWGQGTQVTVSS | low polyreactivity |
| QVQLVESGGGLVQAGGSLRLSCAASGYIFDIYAMGWYRQAPGKERELVAVITRSGGGTYYADSVKGRFTISRDNAKNSVYLQMNSLKPEDTAVYYCAAESYVYGGSDYDYWGQGTQVTVSS | low polyreactivity |
| QVQLVESGGGLVQAGGSLRLSCAASGYIFDRYAMGWYRQAPGKERELVAAISGRGGSTYYADSVKGRFTISRDNAKNTVSLQMNSLKPEDTAVYYCARDVYVRNGQRARYDSWGQGTQVTVSS | high polyreactivity |
| QVQLVESGGGLVQAGGSLRLSCAASGYIFFFYAMGWYRQAPGKERELVASITYRGGSTYYADSVKGRFTISRDNAKNTVYLQMNSLKPEDTAVYYCNVDGGGPLGPQGFPFDYWGQGTQVTVSS | low polyreactivity |
| QVQLVESGGGLVQAGGSLRLSCAASGYIFFRNAMGWSRQAPGKEREFVADIRFSGGNTYYADSVKGRFTISRDNAKNTVYFQKISLKPEDTAVYYCSADLVYTYAYDYWGQGTQVTVSS | low polyreactivity |
| QVQLVESGGGLVQAGGSLRLSCAASGYIFFTNAMGWYRQAPGKERELVAAISTIDGSTYYADSVKGRFTISRDNAKNTVYLQMNSLKPEDTAVYYCATDTPFISSLAYDYWGQGTQVTVSS | low polyreactivity |
| QVQLVESGGGLVQAGGSLRLSCAASGYIFGFYAKGWYRQAPGKERELVARITYSGTSTYYADSVKGRFTISRDNAKNTVYLQMNSLKPEDTAVYYCAKRNKRSAWDSDEYDYWGQGTQVTVSS | low polyreactivity |
| QVQLVESGGGLVQAGGSLRLSCAASGYIFGGYAMGWYRQAPGKERELVAGISIGVGSTYYADSVKGRFTISRDNAKNTVYLQMNSLKPEDTAVYYCNRDSVGYDYWGQGTQVTVSS | low polyreactivity |
| QVQLVESGGGLVQAGGSLRLSCAASGYIFGRNAMGWYRQAPGKERELVAVSSSRGSRTYYADSVKGRFTISRDNAKNTVYLQMNSLKPEDTAVYYCAVRGVVNFDYWGQGTQVTVSS | high polyreactivity |
| QVQLVESGGGLVQAGGSLRLSCAASGYIFGVYTMGWYRQAPGKERELVAGISSGSSTYYADSVKGRFTISRDNAKNTVYLQMNSLKPEDTAVYYCAARERSRTYTSRKQVDYGYGYWGQGTQVTVSS | low polyreactivity |
| QVQLVESGGGLVQAGGSLRLSCAASGYIFHLYGMGWYRQAPGKERELVARISYRGGSTYYADSVKGRFTISRDNAKNTVYLQMNSLKTEDTAVYYCAKDYYKHYYWGQGTQVTVSS | high polyreactivity |
| QVQLVESGGGLVQAGGSLRLSCAASGYIFHSYMGSYRQAPGKETELVAAITSGGSTYYADSVKGRFTISRDNAKNTFFLKMNSLKPEDTAVYYCGAGWWYYLHMDYWGQGTQVTVSS | high polyreactivity |
| QVQLVESGGGLVQAGGSLRLSCAASGYIFIDYAMGWYRQAPGKERELVAAIRWSDSTYYADSVKGRFTISRDNAKNTVYLEMNSLKPEDTAVYYCAAEDSIRWVRRSRWYYYWGQGTQVTVSS | low polyreactivity |
| QVQLVESGGGLVQAGGSLRLSCAASGYIFLANAMGWYRQAPGKERELVARIDTRGDSTYYADSVKGRFTISRDTAKNTVYLQMNSLKPEDTAVYYCAADQQTWWQYSLINEYDYWGQGTQLTVSS | low polyreactivity |
| QVQLVESGGGLVQAGGSLRLSCAASGYIFLRNAKGWSRQAPGKERELVAAIRRTGGSTYYADSVKGRFTISRDIAKNTVYLDMNSLKPEDTAVYYCAKRSYTGYEYLGQGTQVTVSS | low polyreactivity |
| QVQLVESGGGLVQAGGSLRLSCAASGYIFLRNAMGWYRQAPGKERELVAAIRRTGGSTYYADSVKGRFTISRDNAKNTVYLQMNSLKPEDTAVYYCAKRSYTGYEYWGQGTQVTVSS | low polyreactivity |
| QVQLVESGGGLVQAGGSLRLSCAASGYIFNYAMGWYRQAPGKERQLVAAISRRGGSTYYADSVKGRFTISRDNAKNTVYLQMISLKPEDTAVYYCADRLPGYYGIGDYWGQGSQVTVSS | high polyreactivity |
| QVQLVESGGGLVQAGGSLRLSCAASGYIFNYNAMGWYRQAPGKERELVAVIRVSVGSTYYADSVKGRFTISRDNAKNTVYLQMNSLKPEDTAVYYCAADRGARGDYWGQGTQVTVSS | high polyreactivity |
| QVQLVESGGGLVQAGGSLRLSCAASGYIFPAYGMGWYIQAPGKERELVAAISWSTGSTYYADSVKGRFTISRDNAKNTVYLQMNSLKPEDTAVYYCDAGRPRRVPDHWYIYYYWGQATQVTVSS | low polyreactivity |
| QVQLVESGGGLVQAGGSLRLSCAASGYIFPPYAMGWYRQAPGKERELVATITGIGGSTYYADSVKGRFTISRDNAKNTVYLQMNSLKPEDTAVYYCAARRDGYGTHYDYWGQGTQVTVSS | low polyreactivity |
| QVQLVESGGGLVQAGGSLRLSCAASGYIFPYYTMGWYRQAPGKERELVAAITIGGSTYYADSVKGRFTISRDNAKNTVYFQMNSLKPVDTAVYYCAARSRYYDTRFDYWGQGTQVTVSS | low polyreactivity |
| QVQLVESGGGLVQAGGSLRLSCAASGYIFQYNAMGWYRQAPGKERELVAAISRGGRTNYADSVKGRFTISRDNAKNTVYLQMNSLNPEDTAVYFCAAKRPWGYYPWSTQTGDYWGQGTQVTVSS | high polyreactivity |

| Sequence | polyreactivity (PSR sort gate) |
| --- | --- |
| QVQLVESGGGLVQAGGSLRLSCAASGYIFRFYTMGWYRQAPGKERELVASITRSGGSTYYADSVKGRFTISRDNAKNTVYLQMNSLKPEDTAVYYCNARKTVGMDYWGQGTQVTVSS | low polyreactivity |
| QVQLVESGGGLVQAGGSLRLSCAASGYIFRSYAMGWYRQAPGKERELVATISWIGGGTSYADSVKGRFTISRDNAKNTVYLHMNSLIPVDTAVYYCAAGPWAYGRRHAYYSRSFDYWGQGTQVTVSS | high polyreactivity |
| QVQLVESGGGLVQAGGSLRLSCAASGYIFRSYAMGWYRQAPGKERELVATISWIGGGTSYADSVKGRFTISRDNAKNTVYLQMNSLKPEDTAVYYCAAGPWAYGRRHAYYSRSFDYWGQGTQVTVSS | high polyreactivity |
| QVQLVESGGGLVQAGGSLRLSCAASGYIFRVYAMGWYTPAPGKERELVAAISGSGGRTYYADSVKGRFKFSLDIAKNTVYLKMNSLKREDTAVYYCAATLYYYVGVRYDYWGQGSQVTVSS | high polyreactivity |
| QVQLVESGGGLVQAGGSLRLSCAASGYIFRYNEMGWYRQAPGKERALVAAIRATGGSTYYADSVKGRFTISRDNAKNTVYLQMNSLKPEDTAVYYCNAGGQGRTYRYYYWGQGTQVTVSS | high polyreactivity |
| QVQLVESGGGLVQAGGSLRLSCAASGYIFRYYAMGWYRQAPGKERELVAVISSTGTSTYYADSVKGRFTISRDNAKNTVYLQMNSLKPEDTAVYYCAVKGYFSYWRYQSDYWGQGTQVTVSS | high polyreactivity |
| QVQLVESGGGLVQAGGSLRLSCAASGYIFRYYVMGWYRQEPGKERELVAAITFSGGNTYYADSVKGRFTISRDNAKITVYLQMNSLKPEDTAVYYCAADVLYVGGSDYDYWVQGTQVTVSS | low polyreactivity |
| QVQLVESGGGLVQAGGSLRLSCAASGYIFSAYAMGWSRQAPGKERELVAVITSGGGTYYADSVKGRFTISRDNAKNTVYLLMNSLKTEDTAVYYCAAGPLCPYASRYGYWGQGTQVTVSS | high polyreactivity |
| QVQLVESGGGLVQAGGSLRLSCAASGYIFSDNTMGWYRPAPGKERELVAVITSGTSTSYADSVKGRFTISRDNAKNTVYLQMNSLKPEDTAVYDCARESVTYFWYYTPEVDYWGQGTQVTVSS | low polyreactivity |
| QVQLVESGGGLVQAGGSLRLSCAASGYIFSGYARGWYRKAPGKERELVAAISSNGGSTYYADSVKGRFTISRDNANNTVYVQMNSLKPEDTAVYYCNRGLAARVGRGDYWGQGTQVTVSS | low polyreactivity |
| QVQLVESGGGLVQAGGSLRLSCAASGYIFSRYAMGWYRQAPGKERELVAAITRSGTRTYYADSVKGRFTISRDNAKNTVYLQMNSLKPEDTAVYYCAKEYLYSSGFDYWGQGTQVTVSS | high polyreactivity |
| QVQLVESGGGLVQAGGSLRLSCAASGYIFTSYATMGWYRQAPGKERELVATISSGGSTNYADSVKGRVTISRDNAKNTVYLQMNSLKPEDTAVYYCYADRFYTYWGYSWVYPSGSWGQGTQVTVSS | low polyreactivity |
| QVQLVESGGGLVQAGGSLRLSCAASGYIFTYYAMGWYRQAPGKERELVAAISRGGSTYYADSVKGRFTISRDNAKYTVYLQMNSLKPEDTAVYYCNARPRWPWVVNFGYYYWGQGTQVTVSS | low polyreactivity |
| QVQLVESGGGLVQAGGSLRLSCAASGYIFVNAMGWYRQAPGKERELVAAISSGRSTHYADSVKGRFTISLDNAKNTVYLQLNSLKPEDTAVYYCNADLYSWYWAGYNYWGQGTQVTVSS | high polyreactivity |
| QVQLVESGGGLVQAGGSLRLSCAASGYIFVRNAMGWSRQAPGKERELVAAISRTDGTTYYADSVKGRFTISRDNAKNTVYLQMNSLIPEDTAVYYCAADYLRAPYYQYEYWGQGTQVTVSS | low polyreactivity |
| QVQLVESGGGLVQAGGSLRLSCAASGYIFVVNAMGWYRQAPGKERELVAAIDWGGGSTYADSVKGRFTISRDNAKNTVYLQMNSLKPEDTAVYYCAADLWPYPNDYWGQGTQVTVSS | low polyreactivity |
| QVQLVESGGGLVQAGGSLRLSCAASGYIFWFNAMGWYRQAPGKERELVAAITSSDASTNYADSVKGRFTISRDNAKNTVYLQMNSLKPEDTAVYYCAKSSYPRDGYESWGQGTQVTVSS | low polyreactivity |
| QVQLVESGGGLVQAGGSLRLSCAASGYIFWINAMGWYRHAPGKERDLVAAIRYSTGRTYYADSVKGRFTISRDNAKNTVYLQMNSLKPEDTAVYYCNARSWYIRGSQEYYYWGQGTQVTVSS | high polyreactivity |
| QVQLVESGGGLVQAGGSLRLSCAASGYIFYAYAMGWYRQAPGKERELVAAISSGGGRTYYADSVKGRFTISRDNAKNTVYLQMNSLKPEDTAVYYCAARRRDRGEYYYWGQGTQVTVSS | high polyreactivity |
| QVQLVESGGGLVQAGGSLRLSCAASGYIFYDYAMGWYRQAPGKERELVAAIRRSTGTTYYADSVKGRFTISRDNAKNTVYLQMNSLKPEDTAFYYCAALFRPRVHRYDYWGQGTQVTVSS | low polyreactivity |
| QVQLVESGGGLVQAGGSLRLSCAASGYIFYFNAMGWYRQAPGKERELVAAISSRGTGTYADSVKGRFTISRDNAKNTVYLQMNSLKPEDTAVYYCNAYPSIYPGFYKTFFNMDYWGQGTQVTVSS | low polyreactivity |
